In patent US20220144956A1 (published 2022):

B1: H1 L1.12 XENP34575 (antibody, V domains shown)
VH: QLQVQESGPGLVKPSETLSLTCTVSGGSISNSYFSWGWIRQPPGKGLEWIGSFYYGEKTYYNPSLKSRATISIDTSKSQFSLKLSSVTAADTAVYYCPRGPTMIRGVIDSWGQGTLVTVSS
VL: EIVLTQSPATLSLSPGERATLSCRASQSVRTYLAWYQQKPGQAPRLLIYDASNRATGIPARFSGSGSGTDFTLTISSLEPEDFAVYYCQQRSNWPPTFGQGTKVEIK
B2: H1 L1.22 XENP34585 (antibody, V domains shown)
VH: QLQVQESGPGLVKPSETLSLTCTVSGGSISNSYFSWGWIRQPPGKGLEWIGSFYYGEKTYYNPSLKSRATISIDTSKSQFSLKLSSVTAADTAVYYCPRGPTMIRGVIDSWGQGTLVTVSS
VL: EIVLTQSPATLSLSPGERATLSCRASQSVRSYLAWYQQKPGQAPRLLIYSASNRATGIPARFSGSGSGTDFTLTISSLEPEDFAVYYCQQRSNWPPTFGQGTKVEIK
B3: H1 L1.9 XENP34572 (antibody, V domains shown)
VH: QLQVQESGPGLVKPSETLSLTCTVSGGSISNSYFSWGWIRQPPGKGLEWIGSFYYGEKTYYNPSLKSRATISIDTSKSQFSLKLSSVTAADTAVYYCPRGPTMIRGVIDSWGQGTLVTVSS
VL: EIVLTQSPATLSLSPGERATLSCRASQSVQSYLAWYQQKPGQAPRLLIYDASNRATGIPARFSGSGSGTDFTLTISSLEPEDFAVYYCQQRSNWPPTFGQGTKVEIK
B4: H1 L1.40 XENP34603 (antibody, V domains shown)
VH: QLQVQESGPGLVKPSETLSLTCTVSGGSISNSYFSWGWIRQPPGKGLEWIGSFYYGEKTYYNPSLKSRATISIDTSKSQFSLKLSSVTAADTAVYYCPRGPTMIRGVIDSWGQGTLVTVSS
VL: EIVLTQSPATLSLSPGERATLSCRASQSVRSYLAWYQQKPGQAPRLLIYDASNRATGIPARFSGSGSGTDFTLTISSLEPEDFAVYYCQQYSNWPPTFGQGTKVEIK
B5: H1 L1.35 XENP34598 (antibody, V domains shown)
VH: QLQVQESGPGLVKPSETLSLTCTVSGGSISNSYFSWGWIRQPPGKGLEWIGSFYYGEKTYYNPSLKSRATISIDTSKSQFSLKLSSVTAADTAVYYCPRGPTMIRGVIDSWGQGTLVTVSS
VL: EIVLTQSPATLSLSPGERATLSCRASQSVRSYLAWYQQKPGQAPRLLIYDASNRATGIPARFSGSGSGTDFTLTISSLEPEDFATYYCQQRSNWPPTFGQGTKVEIK
B6: H1 L1.42 XENP34605 (antibody, V domains shown)
VH: QLQVQESGPGLVKPSETLSLTCTVSGGSISNSYFSWGWIRQPPGKGLEWIGSFYYGEKTYYNPSLKSRATISIDTSKSQFSLKLSSVTAADTAVYYCPRGPTMIRGVIDSWGQGTLVTVSS
VL: EIVLTQSPATLSLSPGERATLSCRASQSVRSYLAWYQQKPGQAPRLLIYDASNRATGIPARFSGSGSGTDFTLTISSLEPEDFAVYYCQQRGNWPPTFGQGTKVEIK
B7: H1.16 L1 XENP34472 (antibody, V domains shown)
VH: QLQVQESGPGLVKPSETLSLTCTVSGGSISQSYFSWGWIRQPPGKGLEWIGSFYYGEKTYYNPSLKSRATISIDTSKSQFSLKLSSVTAADTAVYYCPRGPTMIRGVIDSWGQGTLVTVSS
VL: EIVLTQSPATLSLSPGERATLSCRASQSVRSYLAWYQQKPGQAPRLLIYDASNRATGIPARFSGSGSGTDFTLTISSLEPEDFAVYYCQQRSNWPPTFGQGTKVEIK
B8: H1.33 L1 XENP34489 (antibody, V domains shown)
VH: QLQVQESGPGLVKPSETLSLTCTVSGGSISNSYFSWAWIRQPPGKGLEWIGSFYYGEKTYYNPSLKSRATISIDTSKSQFSLKLSSVTAADTAVYYCPRGPTMIRGVIDSWGQGTLVTVSS
VL: EIVLTQSPATLSLSPGERATLSCRASQSVRSYLAWYQQKPGQAPRLLIYDASNRATGIPARFSGSGSGTDFTLTISSLEPEDFAVYYCQQRSNWPPTFGQGTKVEIK
B9: H1.25 L1 XENP34481 (antibody, V domains shown)
VH: QLQVQESGPGLVKPSETLSLTCTVSGGSISNSYHSWGWIRQPPGKGLEWIGSFYYGEKTYYNPSLKSRATISIDTSKSQFSLKLSSVTAADTAVYYCPRGPTMIRGVIDSWGQGTLVTVSS
VL: EIVLTQSPATLSLSPGERATLSCRASQSVRSYLAWYQQKPGQAPRLLIYDASNRATGIPARFSGSGSGTDFTLTISSLEPEDFAVYYCQQRSNWPPTFGQGTKVEIK
B10: H1.11 L1 XENP34467 (antibody, V domains shown)
VH: QLQVQESGPGLVKPSETLSLTCTVSGGSISDSYFSWGWIRQPPGKGLEWIGSFYYGEKTYYNPSLKSRATISIDTSKSQFSLKLSSVTAADTAVYYCPRGPTMIRGVIDSWGQGTLVTVSS
VL: EIVLTQSPATLSLSPGERATLSCRASQSVRSYLAWYQQKPGQAPRLLIYDASNRATGIPARFSGSGSGTDFTLTISSLEPEDFAVYYCQQRSNWPPTFGQGTKVEIK
B11: H1.17 L1 XENP34473 (antibody, V domains shown)
VH: QLQVQESGPGLVKPSETLSLTCTVSGGSISRSYFSWGWIRQPPGKGLEWIGSFYYGEKTYYNPSLKSRATISIDTSKSQFSLKLSSVTAADTAVYYCPRGPTMIRGVIDSWGQGTLVTVSS
VL: EIVLTQSPATLSLSPGERATLSCRASQSVRSYLAWYQQKPGQAPRLLIYDASNRATGIPARFSGSGSGTDFTLTISSLEPEDFAVYYCQQRSNWPPTFGQGTKVEIK
B12: H1.9 L1 XENP34465 (antibody, V domains shown)
VH: QLQVQESGPGLVKPSETLSLTCTVSGGSFSNSYFSWGWIRQPPGKGLEWIGSFYYGEKTYYNPSLKSRATISIDTSKSQFSLKLSSVTAADTAVYYCPRGPTMIRGVIDSWGQGTLVTVSS
VL: EIVLTQSPATLSLSPGERATLSCRASQSVRSYLAWYQQKPGQAPRLLIYDASNRATGIPARFSGSGSGTDFTLTISSLEPEDFAVYYCQQRSNWPPTFGQGTKVEIK
B13: H1.3 L1 XENP34459 (antibody, V domains shown)
VH: QVQLQESGPGLVKPSETLSLTCTVSGGSISNSYFSWGWIRQPPGKGLEWIGSFYYGEKTYYNPSLKSRATISIDTSKSQFSLKLSSVTAADTAVYYCPRGPTMIRGVIDSWGQGTLVTVSS
VL: EIVLTQSPATLSLSPGERATLSCRASQSVRSYLAWYQQKPGQAPRLLIYDASNRATGIPARFSGSGSGTDFTLTISSLEPEDFAVYYCQQRSNWPPTFGQGTKVEIK
B14: H1.32 L1 XENP34488 (antibody, V domains shown)
VH: QLQVQESGPGLVKPSETLSLTCTVSGGSISNSYFSMGWIRQPPGKGLEWIGSFYYGEKTYYNPSLKSRATISIDTSKSQFSLKLSSVTAADTAVYYCPRGPTMIRGVIDSWGQGTLVTVSS
VL: EIVLTQSPATLSLSPGERATLSCRASQSVRSYLAWYQQKPGQAPRLLIYDASNRATGIPARFSGSGSGTDFTLTISSLEPEDFAVYYCQQRSNWPPTFGQGTKVEIK
B15: H1.29 L1 XENP34485 (antibody, V domains shown)
VH: QLQVQESGPGLVKPSETLSLTCTVSGGSISNSYFTWGWIRQPPGKGLEWIGSFYYGEKTYYNPSLKSRATISIDTSKSQFSLKLSSVTAADTAVYYCPRGPTMIRGVIDSWGQGTLVTVSS
VL: EIVLTQSPATLSLSPGERATLSCRASQSVRSYLAWYQQKPGQAPRLLIYDASNRATGIPARFSGSGSGTDFTLTISSLEPEDFAVYYCQQRSNWPPTFGQGTKVEIK
B16: H1.20 L1 XENP34476 (antibody, V domains shown)
VH: QLQVQESGPGLVKPSETLSLTCTVSGGSISNTYFSWGWIRQPPGKGLEWIGSFYYGEKTYYNPSLKSRATISIDTSKSQFSLKLSSVTAADTAVYYCPRGPTMIRGVIDSWGQGTLVTVSS
VL: EIVLTQSPATLSLSPGERATLSCRASQSVRSYLAWYQQKPGQAPRLLIYDASNRATGIPARFSGSGSGTDFTLTISSLEPEDFAVYYCQQRSNWPPTFGQGTKVEIK
B17: H1.5 L1 XENP34461 (antibody, V domains shown)
VH: QLQVQESGSGLVKPSETLSLTCTVSGGSISNSYFSWGWIRQPPGKGLEWIGSFYYGEKTYYNPSLKSRATISIDTSKSQFSLKLSSVTAADTAVYYCPRGPTMIRGVIDSWGQGTLVTVSS
VL: EIVLTQSPATLSLSPGERATLSCRASQSVRSYLAWYQQKPGQAPRLLIYDASNRATGIPARFSGSGSGTDFTLTISSLEPEDFAVYYCQQRSNWPPTFGQGTKVEIK
B18: H1.18 L1 XENP34474 (antibody, V domains shown)
VH: QLQVQESGPGLVKPSETLSLTCTVSGGSISNAYFSWGWIRQPPGKGLEWIGSFYYGEKTYYNPSLKSRATISIDTSKSQFSLKLSSVTAADTAVYYCPRGPTMIRGVIDSWGQGTLVTVSS
VL: EIVLTQSPATLSLSPGERATLSCRASQSVRSYLAWYQQKPGQAPRLLIYDASNRATGIPARFSGSGSGTDFTLTISSLEPEDFAVYYCQQRSNWPPTFGQGTKVEIK
B19: H1.26 L1 XENP34482 (antibody, V domains shown)
VH: QLQVQESGPGLVKPSETLSLTCTVSGGSISNSYSSWGWIRQPPGKGLEWIGSFYYGEKTYYNPSLKSRATISIDTSKSQFSLKLSSVTAADTAVYYCPRGPTMIRGVIDSWGQGTLVTVSS
VL: EIVLTQSPATLSLSPGERATLSCRASQSVRSYLAWYQQKPGQAPRLLIYDASNRATGIPARFSGSGSGTDFTLTISSLEPEDFAVYYCQQRSNWPPTFGQGTKVEIK
B20: H1.34 L1 XENP34490 (antibody, V domains shown)
VH: QLQVQESGPGLVKPSETLSLTCTVSGGSISNSYFSWHWIRQPPGKGLEWIGSFYYGEKTYYNPSLKSRATISIDTSKSQFSLKLSSVTAADTAVYYCPRGPTMIRGVIDSWGQGTLVTVSS
VL: EIVLTQSPATLSLSPGERATLSCRASQSVRSYLAWYQQKPGQAPRLLIYDASNRATGIPARFSGSGSGTDFTLTISSLEPEDFAVYYCQQRSNWPPTFGQGTKVEIK
B21: H1 L1 WT XENP28298 (antibody, V domains shown)
VH: QLQVQESGPGLVKPSETLSLTCTVSGGSISNSYFSWGWIRQPPGKGLEWIGSFYYGEKTYYNPSLKSRATISIDTSKSQFSLKLSSVTAADTAVYYCPRGPTMIRGVIDSWGQGTLVTVSS
VL: EIVLTQSPATLSLSPGERATLSCRASQSVRSYLAWYQQKPGQAPRLLIYDASNRATGIPARFSGSGSGTDFTLTISSLEPEDFAVYYCQQRSNWPPTFGQGTKVEIK
B22: H1.31 L1 XENP34487 (antibody, V domains shown)
VH: QLQVQESGPGLVKPSETLSLTCTVSGGSISNSYFSIGWIRQPPGKGLEWIGSFYYGEKTYYNPSLKSRATISIDTSKSQFSLKLSSVTAADTAVYYCPRGPTMIRGVIDSWGQGTLVTVSS
VL: EIVLTQSPATLSLSPGERATLSCRASQSVRSYLAWYQQKPGQAPRLLIYDASNRATGIPARFSGSGSGTDFTLTISSLEPEDFAVYYCQQRSNWPPTFGQGTKVEIK

Target: T1, human TGFßRII (antigen of the Octet experiments) (human, UniProt P37173 23-166)
Experiment: BLI (Octet)

T1 sequence (P37173 23-166): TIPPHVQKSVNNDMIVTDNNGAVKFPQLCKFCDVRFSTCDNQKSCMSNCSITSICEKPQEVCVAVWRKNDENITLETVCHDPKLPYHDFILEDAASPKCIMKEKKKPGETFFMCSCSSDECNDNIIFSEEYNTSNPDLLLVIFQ

In order of rising Kd:
1. B5  0.344 nM
2. B1  0.539 nM
3. B2  0.782 nM
4. B6  2.94 nM
5. B3  16.4 nM
6. B4  23.1 nM

Target: T1, human TGFßRII (antigen of the Octet …)
Experiment: BLI (Octet)
Remark: another data set of the same source

In order of falling Kd:
1. B22  7.28 nM
2. B20  5.73 nM
3. B14  2.47 nM
4. B15  1.79 nM
5. B16  0.559 nM
6. B12  0.496 nM
7. B10  0.419 nM
8. B9  0.415 nM
9. B8  0.414 nM
10. B7  0.407 nM
11. B11  0.292 nM
12. B19  0.273 nM
13. B17  0.245 nM
14. B18  0.205 nM
15. B13  0.001 nM
16. B21  0.001 nM
